In experiment [1] the target is rat FcεRI (high affinity IgE receptor) on RBL-2H3 cells (rat) (UniProt P12371). Description: FACS on RBL-2H3 cells; FITC-conjugated IgE at a subsaturating concentration, no preincubation. The note with it: scale: mCi.
The target is the same in experiment [2]. As to the kind of experiment: FACS on RBL-2H3 cells; FITC-conjugated IgE after preincubation with saturating unconjugated 3A9 (competitor). The conditions noted are these: scale: mCi.
For experiment [3] the target is unchanged. As to the kind of experiment: FACS on RBL-2H3 cells; FITC-conjugated IgE after preincubation with saturating unconjugated 4H7 (competitor). The arrangement: unit not given here.
The target is the same in experiment [4]. As to the kind of experiment: FACS on RBL-2H3 cells; FITC-conjugated IgE after preincubation with saturating unconjugated BC4 (competitor). The conditions noted are these: scale: mCi.
Experiment [5] shares this target. Description: FACS on RBL-2H3 cells; FITC-conjugated IgE after preincubation with saturating unconjugated 1A12 (competitor). The note with it: scale: mCi.
The target is the same in experiment [6]. Description: FACS on RBL-2H3 cells; FITC-conjugated IgE after preincubation with saturating unconjugated 5.14 (competitor). The note with it: scale: mCi.
The target is the same in experiment [7]. As to the kind of experiment: FACS on RBL-2H3 cells; FITC-conjugated IgE after preincubation with saturating unconjugated AA4 (anti-ganglioside Gd1b, competitor). The conditions noted are these: scale: mCi.

Turning to IgE (antibody), the Median Fluorescence Intensity was 75 in experiment [1]; 6.5 in experiment [2]; 6.4 in experiment [3]; 5.8 in experiment [4]; 61 in experiment [5]; 5.5 in experiment [6]. In experiment [7], the Median Fluorescence Intensity worked out at 12.3.

The record behind these values is patent US7026283.
